Data as given in patent US20210130420A1, “RECOMBINANT BINDING PROTEINS TARGETING HER2 AND SERUM ALBUMIN, AND THEIR USES” (Molecular Partners AG, priority 2016, published 2021).

How the values were obtained:
[1] = Storage stability in PBS analysed by SDS-PAGE; type: physicochemical; details: SDS-PAGE after 1 month at 40° C. in glass vials in PBS at 10 mg/ml
Procedure: “Improved storage stability” in the context of the present invention means the reduction of the amounts of a degradation band, preferably the reduction of the amount of degradation products, as detected by a Coomassie-stained SDS-PAGE occurring after storage at 40° C. for 1 month at 10 mg/ml in PBS, by at least 5%, 10%, 15%, 20%, 25%, 30%, 35%, 40%, 45%, 50%, or 50%. Methods to assess storage stability by SDS-PAGE are well known to the person skilled in the art. Examples of designed ankyrin repeat domains and recombinant binding proteins with improved storage stability properties are given in Examples 2 and 3.
Protein #13-His, Protein #14-His and Protein #15-His were prepared as described in Example 1, and samples were concentrated to 10 mg/ml in PBS. Protein #14-His and Protein #15-His where then stored for 1 month at −80° C. or at 40° C. in glass vials, followed by analysis on SDS 15% PAGE. […] These findings illustrate that Protein #14-His has improved storage stability compared to Proteins #13-His and Protein #15-His.
(§1) A storage stability improvement is also observed, when testing the storage stability of Protein #21 and Protein #22 (recombinant binding proteins consisting of the amino acid sequences corresponding to SEQ ID NOs: 21 and 22, respectively). Protein #21 and Protein #22 are prepared as described in Example 1, samples are concentrated to 10 mg/ml in PBS and stored for 1 month at −80° C. in or at 40° C. in glass vials, followed by analysis on standard size-exclusion chromatography.

[2] = Storage stability in PBS analysed by size-exclusion chromatography; type: physicochemical; details: 10 mg/ml in PBS
Procedure: as §1

[3] = test system: SKBR-3, SKOV-3, NCI-N87, ZR-75-30, HCC1419, or MDA-MB175; assay: Induction of apoptosis in further cell lines; type: cell-based
[4] = test system: GXA3039; assay: Gastric cancer patient derived tumor xenograft mouse model GXA3039; type: in vivo; details: Protein #21 60 mg/kg, antibodies 10 mg/kg, every three days for 6 times
Procedure: Further, Protein #21 was expressed and purified as described in Example 1. […] All groups were dosed every three days for 6 times. Briefly, tumor fragments were obtained from xenografts in serial passage in nude mice. After removal from donor mice, tumors were cut into fragments (4-5 mm diameter) for subcutaneous implantation. Mice were randomized into groups when tumors reached a volume of approximately 100-120 mm^3. The day of randomization and treatment initiation is designated as day 0 in each experiment. Tumor growth was monitored by two-dimensional measurement with a caliper on the day of randomization and then twice weekly. Relative volumes of individual tumors (individual RTVs) for Day x were calculated by dividing the individual tumor volume on Day x (Tx) by the individual volume of the same tumor on Day 0 (TO) multiplied by 100%. Tumor inhibition for a particular day (T/C in %) was calculated from the ratio of the median RTV values of test versus control groups multiplied by 100%.

[5] = target: HER2 (Homo sapiens, UniProt P04626); assay: Phospho-proteome mass spectrometry of BT474 cells; type: cell-based; set-up: host or cells: BT474; details: 100 nM, 18 hours
From the text: Protein #21 was expressed and purified as described in Example 1. […] Cells were then subjected to a phospho-proteome mass-spectrometry analysis as described by Britton, D., et al. (Britton, D., Zen, Y., Quaglia, A., Selzer, S., Mitra, VI., Lössner, C., Jung, S., Bohm, G., Schmid, P., Prefot, P., Hoehle, C., Koncarevic, S., Gee, J., Nicholson, R., Ward, M., Castellano, L., Stebbing, J., Zucht, H. D., Sarker, D., Heaton, N., and Pike, I., 2014. PLOS One 9 (3), e90948).

- HER2 S1073/S1078/S1083 phosphorylation [5]: 0.35 fold change to PBS
- HER2 S1174 phosphorylation [5]: 0.59 fold change to PBS
- HER2 T772 phosphorylation [5]: 10.27 fold change to PBS
- HER2 T1172/S1174 phosphorylation [5]: 0.44 fold change to PBS
- HER2 T1240 phosphorylation [5]: 0.09 fold change to PBS
- HER2 Y1139/S1151 phosphorylation [5]: 0.88 fold change to PBS
B1: Protein #21: SEQ ID NO: 21; HER2 binding domains (SEQ ID NOs: 16, 17) flanked by two serum albumin binding domains (SEQ ID NO: 14), SEQ ID NO: 9 linkers (protein)
chain: GSDLGKKLLEAARAGQDDEVRELLKAGADVNAKDYFSHTPLHLAARNGHLKIVEVLLKAGADVNAKDFAGKTPLHLAANEGHLEIVEVLLKAGADVNAQDIFGKTPADIAADAGHEDIAEVLQKAAGSPTPTPTTPTPTPTTPTPTPTGSDLGIKLLFAAAKGQDDEVRELLKAGADVNAKDFQGVTPLHIAAQSGHLEIVEVLLKAGADVNAKDVTGDTPLHLAAQHGHLEIVEVLLKAGADVNAQDERGWTPADLAADWGHEDIAEVLQKAAGSPTPTPTTPTPTPTTPTPTPTGSDLGKKLLEAARAGQDDEVRELLKAGADVNAKDEYGLTPLYLATAHGHLEIVEVLLKAGADVNAVDAIGFTPLHLAAFIGHLEIAEVLLKAGADVNAQDKFGKTPADIAAGAGNEDIAEVLQKAAGSPTPTPTTPTPTPTTPTPTPTGSDLGKKLLEAARAGQDDEVRELLKAGADVNAKDYFSHTPLHLAARNGHLKIVEVLLKAGADVNAKDFAGKTPLHLAANEGHLEIVEVLLKAGADVNAQDIFGKTPADIAADAGHEDIAEVLQKAA
modifications: Protein comprising four designed ankyrin repeat domains
- amounts of degradation products compared to Protein #22 [1]: lower amounts of degradation products
- monomeric species compared to Protein #22 ([2]; 1 month at 40° C.): significantly more monomeric species
- elution profiles upon storage at −80° C. ([2]; 1 month at −80° C.): equivalent elution profiles
- potency in inducing apoptosis in further cell lines [3]: high potency in inducing apoptosis
- inhibition of tumor growth, first experiment ([4]; GXA3039, FIG. 4C): strong inhibition of tumor growth
- inhibition of tumor growth, second experiment ([4]; GXA3039, FIG. 4D): strong inhibition of tumor growth
